Where a chain is given by its changes, count along the chain named. In names and notes the source's numbering stands.
B1: CE115HA000 G98S one-arm antibody (antibody, human IgG1, kappa, L234A L235A, N297A, name in Kabat numbering)
heavy: QVQLVESGGGVVQPGRSLRLSCAASGFTFSNAWMHWVRQAPGKGLEWVAQIKAKSNNYATYYAESVKGRFTISRDDSKNSLYLQMNSLKTEDTAVYYCRYVHYSAYYGVDAWGQGTTVTVSSASTKGPSVFPLAPSSKSTSGGTAALGCLVKDYFPEPVTVSWNSGALTSGVHTFPAVLQSSGLYSLSSVVTVPSSSLGTQTYICNVNHKPSNTKVDKKVEPKSCDKTHTCPPCPAPEAAGGPSVFLFPPKPKDTLMISRTPEVTCVVVDVSHEDPEVKFNWYVDGVEVHNAKTKPREEQYASTYRVVSVLTVLHQDWLNGKEYKCKVSNKALPAPIEKTISKAKGQPREPQVYTLPPSRCELTKNQVSLSCAVKGFYPSDIAVEWESNGQPENNYKTTPPVLDSDGSFFLVSKLTVDKSRWQQGNVFSCSVMHEALHNHYTQKSLSLSPDYKDDDDK
chain: EPKSSDKTHTCPPCPAPELLGGPSVFLFPPKPKDTLMISRTPEVTCVVVDVSHEDPEVKFNWYVDGVEVHNAKTKPREEQYNSTYRVVSVLTVLHQDWLNGKEYKCKVSNKALPAPIEKTISKAKGQPREPQVCTLPPSRDELTKNQVSLWCLVKGFYPSDIAVEWESNGQPENNYKTTPPVLDSDGSFFLYSKLTVDKSRWQQGNVFSCSVMHEALHNRYTQKSLSLSP
light: DIVMTQSPLSLPVTPGEPASISCRSSQSLVHSNRNTYLHWYQQKPGQAPRLLIYKVSNRFSGVPDRFSGSGSGTDFTLKISRVEAEDVGVYYCGQGTQVPYTFGQGTKLEIKRTVAAPSVFIFPPSDEQLKSGTASVVCLLNNFYPREAKVQWKVDNALQSGNSQESVTEQDSKDSTYSLSSTLTLSKADYEKHKVYACEVTHQGLSSPVTKSFNRGEC
notes: one-arm antibody
B2: CE115HA000 G98T one-arm antibody (antibody, human IgG1, kappa, L234A L235A, N297A, name in Kabat numbering)
heavy: B1 heavy with S104T
chain: B1 chain
light: B1 light
notes: one-arm antibody
B3: CE115HA000 G100bF one-arm antibody (antibody, human IgG1, kappa, L234A L235A, N297A, name in Kabat numbering)
heavy: B1 heavy with S104G, G108F
chain: B1 chain
light: B1 light
notes: one-arm antibody
B4: CE115HA000 G100bS one-arm antibody (antibody, human IgG1, kappa, L234A L235A, N297A, name in Kabat numbering)
heavy: B1 heavy with S104G, G108S
chain: B1 chain
light: B1 light
notes: one-arm antibody
B5: CE115HA000 G100bD one-arm antibody (antibody, human IgG1, kappa, L234A L235A, N297A, name in Kabat numbering)
heavy: B1 heavy with S104G, G108D
chain: B1 chain
light: B1 light
notes: one-arm antibody
B6: CE115HA000 G100bE one-arm antibody (antibody, human IgG1, kappa, L234A L235A, N297A, name in Kabat numbering)
heavy: B1 heavy with S104G, G108E
chain: B1 chain
light: B1 light
notes: one-arm antibody
B7: CE115HA000 H96G one-arm antibody (antibody, human IgG1, kappa, L234A L235A, N297A, name in Kabat numbering)
heavy: B1 heavy with H102G, S104G
chain: B1 chain
light: B1 light
notes: one-arm antibody
B8: CE115HA000 G100bY one-arm antibody (antibody, human IgG1, kappa, L234A L235A, N297A, name in Kabat numbering)
heavy: B1 heavy with S104G, G108Y
chain: B1 chain
light: B1 light
notes: one-arm antibody
B9: CE115HA000 G100bL one-arm antibody (antibody, human IgG1, kappa, L234A L235A, N297A, name in Kabat numbering)
heavy: B1 heavy with S104G, G108L
chain: B1 chain
light: B1 light
notes: one-arm antibody
B10: CE115HA000 G98Y one-arm antibody (antibody, human IgG1, kappa, L234A L235A, N297A, name in Kabat numbering)
heavy: B1 heavy with S104Y
chain: B1 chain
light: B1 light
notes: one-arm antibody

Molecular target: T1, CD3 epsilon homodimer protein (UniProt P07766 23-126)
T1 construct: Construct of the homodimer protein is not described; also called CD3 (CD3 epsilon)
Assay: SPR (Biacore T200), CD3 epsilon homodimer on CM4 chip, one-arm antibody as analyte; ratio to unaltered CE115HA000;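 note: surface plasmon resonance run at 25 °C with HBS-EP+ as running buffer, CD3 epsilon homodimer attached by amine coupling, antibody passed over as analyte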

T1 sequence (P07766 23-126): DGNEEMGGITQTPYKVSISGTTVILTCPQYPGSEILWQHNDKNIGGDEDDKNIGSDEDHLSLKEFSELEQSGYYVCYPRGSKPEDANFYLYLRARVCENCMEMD

| Binder | KD ratio (KD value of CE115HA000/KD value of the altered form) |
| --- | --- |
| B1 | 0.98 |
| B2 | 0.93 |
| B3 | 4.37 |
| B4 | 1.25 |
| B5 | 6.25 |
| B6 | 7.29 |
| B7 | 0.8 |
| B8 | 51.4 |
| B9 | 5.84 |
| B10 | 2.75 |
